Experimental data taken from PMC3765442.
Each block holds one binder with its values, some of them ahead of it.

Key:
Conditions in all cases: remark: other sources report otherwise
[1] = molecular target: T1, EB1-GFP (C-terminally EGFP-His-tagged human EB1) (human), Q15691; assay: SEC-MALS; Superdex 200 10/30 with in-line multi-angle light scattering; 1 to 4 mg/ml injected in 100 µl (about 1 µM at the peak); 20 mM Tris-HCl pH 7.5, 300 mM NaCl, 2 mM DTT; room temperature; single experiments
T1 chain: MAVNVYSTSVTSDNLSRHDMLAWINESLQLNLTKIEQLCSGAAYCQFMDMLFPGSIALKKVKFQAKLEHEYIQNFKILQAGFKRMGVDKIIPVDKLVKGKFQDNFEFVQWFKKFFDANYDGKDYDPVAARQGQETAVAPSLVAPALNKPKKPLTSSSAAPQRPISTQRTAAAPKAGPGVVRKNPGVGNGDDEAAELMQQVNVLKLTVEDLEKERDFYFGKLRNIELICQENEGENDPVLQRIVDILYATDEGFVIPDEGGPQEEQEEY

[2] = molecular target: T1, EB1-GFP (C-terminally EGFP-His-tagged …); assay: AUC; fluorescence sedimentation velocity (GFP signal at 488 nm), 22°C; dilution series from about 500 to about 0.5 nM (monomer equivalents); 20 mM Tris-HCl pH 7.5, 300 mM NaCl, 0.2 mg/ml BSA, 2 mM DTT or 0.1 mM TCEP; samples incubated 16 hours at 22°C; dimer to monomers; apparent Kd
[3] = molecular target: T2, EB1-GFP[A206K] (human), Q15691; assay: as above
T2 chain: T1 chain

- stoichiometry N [1]: 2
- stoichiometry N [2]: 2
B1: EB1-GFP (C-terminally EGFP-His-tagged human EB1), Q15691 1-268 (natural protein)
chain: T1 chain

- stoichiometry N [3]: 2
B2: EB1-GFP[A206K], Q15691 1-268 (natural protein)
chain: T1 chain
